{
  "source": "paper PMC3316156",
  "about": "(Biochemical Journal, 2012)",
  "proteins": {"B1": {"name": "CBS-1 (Caenorhabditis elegans) (protein)", "chain": "MIQNEVSATHGSTKKGITYNTILEAAQRPTPLVPLKKLKVEHQLQSDIYVKLEYLNIAGSLEDRTADKAFQFAEEIGVVRGDEVFVTAGGSAAISYATVAAVKGIKLTIYAPKGEFDLVDTVLHTLGVKTVELPFGTFAEARVQTDEAAQQKGVFSLNKFTTNAAFVANLQKTALEIEKAVNNKSIGKVGAVVIPLNTGAAAAGIAAYYKGIGEHGVRVVGVTCKKDTIPEMGLDLKNDLLQEYNVEKREVEEDEAYSFTRHLIGTEGIMAGPSSGAAVLEAIKLAKELPAGSTIVVVLMDGIRNYLRHFLDDDWITANKKDVVTRKDGPQPNSIYDPKVLVYDPTKLAGEWTQDPETKSWSHSEVEFNKFNPERPLVLDTVLDAIGKTPLVKLQHIPKAHGVKCNVYVKCEYMNAGGSTKDRIAKRMVEIAEKTGKPGKLVPGVTLIEPTSGNTGIGLSLASAVRGYKCIITMPKKMSKEKSIAMASLGSTIIRTPNEAGFDSPHSHIGVALRLKSEIQDAVVLDQYCNPGNPLAHYEETAEEIIYDMGDKHIDLVVLTAGTGGTVTGISRKIHERIPTAKVVGVDPHGSILAGPAETDIDFYEVEGIGYDFLPGTLDTSAIDYWAKSHDKESFLMARELIRSEGILCGGSSGCAVHYALEECKSLNLPAEANVVVLLPDGIRNYITKFLDDDWMNERHFLDA"}, "B2": {"name": "human 45CBS (C-terminally truncated human cystathionine β-synthase, residues 1-413) (domain or fragment, UniProt P35520 1-413, looked up)", "chain": "MPSETPQAEVGPTGCPHRSGPHSAKGSLEKGSPEDKEAKEPLWIRPDAPSRCTWQLGRPASESPHHHTAPAKSPKILPDILKKIGDTPMVRINKIGKKFGLKCELLAKCEFFNAGGSVKDRISLRMIEDAERDGTLKPGDTIIEPTSGNTGIGLALAAAVRGYRCIIVMPEKMSSEKVDVLRALGAEIVRTPTNARFDSPESHVGVAWRLKNEIPNSHILDQYRNASNPLAHYDTTADEILQQCDGKLDMLVASVGTGGTITGIARKLKEKCPGCRIIGVDPEGSILAEPEELNQTEQTTYEVEGIGYDFIPTVLDRTVVDKWFKSNDEEAFTFARMLIAQEGLLCGGSAGSTVAVAVKAAQELQEGQRCVVILPDSVRNYMTKFLSDRWMLQKGFLKEEDLTEKKPWWWHLR"}},
  "key": {"[1]": {"substrate": "N[C@@H](CO)C(=O)O", "assay": "cystathionine production by LC-MS/MS, non-linear fit", "type": "biochemical, Caenorhabditis elegans", "settings": "co-substrate homocysteine, 100 mM Bis/Tris pH 8.0, 25 °C"}, "[2]": {"substrate": "N[C@@H](CCS)C(=O)O", "assay": "cystathionine production by LC-MS/MS, non-linear fit", "type": "biochemical, Caenorhabditis elegans", "settings": "co-substrate serine, 100 mM Bis/Tris pH 8.0, 25 °C"}, "cross-linking": {"target": "the molecule itself", "assay": "cross-linking"}},
  "data": [
    {"protein": "B1", "values": [
      {"measurement": "Km", "setting": "[1]", "value": "5.57 ± 0.68", "unit": "mM"},
      {"measurement": "kcat", "setting": "[1]", "value": "48.1 ± 2.95", "unit": "s⁻¹"},
      {"measurement": "kcat/Km", "setting": "[1]", "value": 8500, "unit": "M⁻¹ s⁻¹"},
      {"measurement": "Km", "setting": "[2]", "value": "4.29 ± 0.97", "unit": "mM"},
      {"measurement": "kcat", "setting": "[2]", "value": "43.3 ± 4.33", "unit": "s⁻¹"},
      {"measurement": "kcat/Km", "setting": "[2]", "value": 10000, "unit": "M⁻¹ s⁻¹"}
    ]},
    {"protein": "B2", "values": [
      {"measurement": "stoichiometry N", "setting": "cross-linking", "value": 2}
    ]}
  ]
}
